Article PMC8569584

Experiments:
[1] = target: mAb m24; test: mAb binding to transfected HEK293FT cells (MFI normalized to integrin expression); settings: read off a plot
[2] = target: mAb KIM127; test: as above; settings: read off a plot
[3] = target: PAC-1; test: PAC-1 binding to transfected HEK293FT cells (normalized MFI); settings: 1 mM Ca/Mg; parent: est. 4; read off a plot
[4] = target: human ICAM-1 with a C-terminal Fc tag of human IgG1 (UniProt P05362); test: ICAM-1 binding to transfected HEK293FT cells (MFI normalized to integrin expression); settings: 1 mM CaCl2 plus 1 mM MgCl2 (Ca/Mg), read off a plot
[5] = 1 mM CaCl2 plus 1 mM MnCl2 (Ca/Mn), parent: est. 230
[6] = 1 mM CaCl2 plus 1 mM MnCl2 (Ca/Mn), parent: est. 200

| response (normalized MFI) [1, 5] | response (normalized MFI) ([2]; 1 mM Ca/Mg, parent: est. 80) | response (normalized MFI) [2, 6] | response (normalized MFI) [3] | also measured | Substance |
| --- | --- | --- | --- | --- | --- |
| 210 | 120 | 210 | – | response (normalized MFI) ([1]; 1 mM Ca/Mg, parent: est. 98): 160 | integrin αLβ2 with the αL-GFFKR to GAAKR mutation and wild-type β2 (from UniProt P20701;P05107) β2:L692P |
| 180 | 31 | 120 | – | response (normalized MFI) ([1]; 1 mM Ca/Mg, parent: est. 98): 30 | integrin αLβ2 with the αL-GFFKR to GAAKR mutation and wild-type β2 (from UniProt P20701;P05107) β2:V691P |
| – | – | – | 6 | – | αIIb WT + β3 WT β3:P688C |
| – | – | – | 150 | – | αIIb WT + β3 WT αIIb:L959C; αIIb:G991C |
| 220 | 91 | 190 | – | – | integrin αLβ2 with the αL-GFFKR to GAAKR mutation and wild-type β2 (from UniProt P20701;P05107) β2:V699P |
| – | – | – | 34 | – | αIIb WT + β3 WT αIIb:L959C; αIIb:F992C |
| – | – | – | 3 | – | αIIb WT + β3 WT αIIb:L959C; αIIb:F992C; β3:P688C |
| – | – | – | 110 | – | αIIb WT + β3 WT αIIb:L959C; αIIb:R995C |
| 260 | 52 | 180 | – | response (normalized MFI) ([1]; 1 mM Ca/Mg, parent: est. 98): 75 | integrin αLβ2 with the αL-GFFKR to GAAKR mutation and wild-type β2 (from UniProt P20701;P05107) β2:L696P |
| – | – | – | 3 | – | αIIb WT + β3 WT αIIb:L959C; αIIb:F993C; β3:P688C |
| – | – | – | – | response (normalized MFI) ([4]; parent: est. 5): 60; response (normalized MFI) ([1]; 1 mM CaCl2 plus 1 mM MnCl2 (Ca/Mn), parent: est. 58): 230; response (normalized MFI) ([2]; 1 mM Ca/Mg, parent: est. 18): 80; response (normalized MFI) ([2]; 1 mM CaCl2 plus 1 mM MnCl2 (Ca/Mn), parent: est. 44): 200 | αL/β2 WT αL:FFAA (GFFKR to GAAKR) |
| – | – | – | 11 | – | αIIb WT + β3 WT αIIb:L959C; αIIb:R995C; β3:P688C |
| 200 | 60 | 170 | – | response (normalized MFI) ([1]; 1 mM Ca/Mg, parent: est. 98): 67 | integrin αLβ2 with the αL-GFFKR to GAAKR mutation and wild-type β2 (from UniProt P20701;P05107) β2:I690P |
| – | – | – | 3 | – | αIIb WT + β3 WT αIIb:L959C; αIIb:K994C; β3:P688C |
| – | – | – | 37 | – | αIIb WT + β3 WT αIIb:L959C; αIIb:F993C |
| – | – | – | 25 | – | αIIb WT + β3 WT αIIb:L959C; αIIb:K994C |
| 140 | 30 | 110 | – | response (normalized MFI) ([1]; 1 mM Ca/Mg, parent: est. 98): 33 | integrin αLβ2 with the αL-GFFKR to GAAKR mutation and wild-type β2 (from UniProt P20701;P05107) β2:I693P |
| – | – | – | – | response (normalized MFI) ([4]; parent: est. 60): 84 | integrin αLβ2 with the αL-GFFKR to GAAKR mutation and wild-type β2 (from UniProt P20701;P05107) β2:I698P |
| – | – | – | 4 | – | αIIb WT + β3 WT αIIb:L959C; αIIb:G991C; β3:P688C |
